Measured values: patent US20220033462A1 (ALLOGENE THERAPEUTICS, published 2022)
Substitutions are numbered along the chain they refer to.

B1: N-CAR SIGLEC9 (SEQ ID No 1999 with intracellular domain SEQ ID No 2010) (other)
chain: EVQLQQSGPELVKPGTSVRISCKTSGYTFTEYTIHWVKQSHGKSLEWIGNINPNNGGTTYNQKFEDKATLTVDKSSSTAYMELRSLTSEDSAVYYCAAGWNFDYWGQGTTVTVSSGGGGSGGGGSGGGGSDIVMTQSHKFMSTSVGDRVSIICKASQDVGTAVDWYQQKPGQSPKLLIYWASTRHTGVPDRFTGSGSGTDFTLTITNVQSEDLADYFCQQYNSYPLTFGAGTMLDLKRAAATERRAEVPTAHPSPSPRPAGQFQTLVVGVVGGLLGSLVLLVWVLAVIVRSCRKKSARPAAGVGDTGIEDANAVRGSASQGPLTEPWAEDSPPDQPPPASARSSVGEGELQYASLSFQMVKPWDSRGQEATDTEYSEIKIHR
B2: N-CAR PD1-KIR2DL2 (SEQ ID No 1999 with intracellular domain SEQ ID No 2017) (other)
chain: EVQLQQSGPELVKPGTSVRISCKTSGYTFTEYTIHWVKQSHGKSLEWIGNINPNNGGTTYNQKFEDKATLTVDKSSSTAYMELRSLTSEDSAVYYCAAGWNFDYWGQGTTVTVSSGGGGSGGGGSGGGGSDIVMTQSHKFMSTSVGDRVSIICKASQDVGTAVDWYQQKPGQSPKLLIYWASTRHTGVPDRFTGSGSGTDFTLTITNVQSEDLADYFCQQYNSYPLTFGAGTMLDLKRAAATERRAEVPTAHPSPSPRPAGQFQTLVVGVVGGLLGSLVLLVWVLAVICSRAARGTIGARRTGQPLKEDPSAVPVFSVDYGELDFQWREKTPEPPVPCVPEQTEYATIVFPSGMGTSSPARRGSADGPRSAQPLRPEDGHCSWPLHRWCSNKKNAAVMDQESAGNRTANSEDSDEQDPQEVTYTQLNHCVFTQRKITRPSQRPKTPPTDIIVYAELPNAESRSKVVSCP
B3: N-CAR CD300LF (SEQ ID No 1999 with intracellular domain SEQ ID No 2007) (other)
chain: EVQLQQSGPELVKPGTSVRISCKTSGYTFTEYTIHWVKQSHGKSLEWIGNINPNNGGTTYNQKFEDKATLTVDKSSSTAYMELRSLTSEDSAVYYCAAGWNFDYWGQGTTVTVSSGGGGSGGGGSGGGGSDIVMTQSHKFMSTSVGDRVSIICKASQDVGTAVDWYQQKPGQSPKLLIYWASTRHTGVPDRFTGSGSGTDFTLTITNVQSEDLADYFCQQYNSYPLTFGAGTMLDLKRAAATERRAEVPTAHPSPSPRPAGQFQTLVVGVVGGLLGSLVLLVWVLAVIWRMMKYQQKAAGMSPEQVLQPLEGDLCYADLTLQLAGTSPQKATTKLSSAQVDQVEVEYVTMASLPKEDISYASLTLGAEDQEPTYCNMGHLSSHLPGRGPEEPTEYSTISRP
B4: N-CAR PD1-L2-ITSM (SEQ ID No 1999 with intracellular domain SEQ ID No 2012) (other)
chain: EVQLQQSGPELVKPGTSVRISCKTSGYTFTEYTIHWVKQSHGKSLEWIGNINPNNGGTTYNQKFEDKATLTVDKSSSTAYMELRSLTSEDSAVYYCAAGWNFDYWGQGTTVTVSSGGGGSGGGGSGGGGSDIVMTQSHKFMSTSVGDRVSIICKASQDVGTAVDWYQQKPGQSPKLLIYWASTRHTGVPDRFTGSGSGTDFTLTITNVQSEDLADYFCQQYNSYPLTFGAGTMLDLKRAAATERRAEVPTAHPSPSPRPAGQFQTLVVGVVGGLLGSLVLLVWVLAVICSRAARGTIGARRTGQPLKEDPSAVPVFSVDYGELDFQWREKTPEPPVPCVPEQTEYATIDFQWREKTPEPPVPCVPEQTEYATIVFPSGMGTSSPARRGSADGPRSAQPLRPEDGHCSWPL
B5: N-CAR PD1-TIM3 (SEQ ID No 1999 with intracellular domain SEQ ID No 2006) (other)
chain: EVQLQQSGPELVKPGTSVRISCKTSGYTFTEYTIHWVKQSHGKSLEWIGNINPNNGGTTYNQKFEDKATLTVDKSSSTAYMELRSLTSEDSAVYYCAAGWNFDYWGQGTTVTVSSGGGGSGGGGSGGGGSDIVMTQSHKFMSTSVGDRVSIICKASQDVGTAVDWYQQKPGQSPKLLIYWASTRHTGVPDRFTGSGSGTDFTLTITNVQSEDLADYFCQQYNSYPLTFGAGTMLDLKRAAATERRAEVPTAHPSPSPRPAGQFQTLVVGVVGGLLGSLVLLVWVLAVICSRAARGTIGARRTGQPLKEDPSAVPVFSVDYGELDFQWREKTPEPPVPCVPEQTEYATIVFPSGMGTSSPARRGSADGPRSAQPLRPEDGHCSWPLFKWYSHSKEKIQNLSLISLANLPPSGLANAVAEGIRSEENIYTIEENVYEVEEPNEYYCYVSSRQQPSQPLGCRFAMP
B6: N-CAR PD1-L2-ITSM-L2-ITSM (SEQ ID No 1999 with intracellular domain SEQ ID No 2013) (other)
chain: EVQLQQSGPELVKPGTSVRISCKTSGYTFTEYTIHWVKQSHGKSLEWIGNINPNNGGTTYNQKFEDKATLTVDKSSSTAYMELRSLTSEDSAVYYCAAGWNFDYWGQGTTVTVSSGGGGSGGGGSGGGGSDIVMTQSHKFMSTSVGDRVSIICKASQDVGTAVDWYQQKPGQSPKLLIYWASTRHTGVPDRFTGSGSGTDFTLTITNVQSEDLADYFCQQYNSYPLTFGAGTMLDLKRAAATERRAEVPTAHPSPSPRPAGQFQTLVVGVVGGLLGSLVLLVWVLAVICSRAARGTIGARRTGQPLKEDPSAVPVFSVDYGELDFQWREKTPEPPVPCVPEQTEYATIDFQWREKTPEPPVPCVPEQTEYATIDFQWREKTPEPPVPCVPEQTEYATIVFPSGMGTSSPARRGSADGPRSAQPLRPEDGHCSWPL
B7: N-CAR PD1-PD1 (SEQ ID No 1999 with intracellular domain SEQ ID No 2005) (other)
chain: EVQLQQSGPELVKPGTSVRISCKTSGYTFTEYTIHWVKQSHGKSLEWIGNINPNNGGTTYNQKFEDKATLTVDKSSSTAYMELRSLTSEDSAVYYCAAGWNFDYWGQGTTVTVSSGGGGSGGGGSGGGGSDIVMTQSHKFMSTSVGDRVSIICKASQDVGTAVDWYQQKPGQSPKLLIYWASTRHTGVPDRFTGSGSGTDFTLTITNVQSEDLADYFCQQYNSYPLTFGAGTMLDLKRAAATERRAEVPTAHPSPSPRPAGQFQTLVVGVVGGLLGSLVLLVWVLAVICSRAARGTIGARRTGQPLKEDPSAVPVFSVDYGELDFQWREKTPEPPVPCVPEQTEYATIVFPSGMGTSSPARRGSADGPRSAQPLRPEDGHCSWPLCSRAARGTIGARRTGQPLKEDPSAVPVFSVDYGELDFQWREKTPEPPVPCVPEQTEYATIVFPSGMGTSSPARRGSADGPRSAQPLRPEDGHCSWPL
B8: N-CAR PD1 (ITSM mut 1) (SEQ ID No 1999 with intracellular domain SEQ ID No 2014) (other)
chain: EVQLQQSGPELVKPGTSVRISCKTSGYTFTEYTIHWVKQSHGKSLEWIGNINPNNGGTTYNQKFEDKATLTVDKSSSTAYMELRSLTSEDSAVYYCAAGWNFDYWGQGTTVTVSSGGGGSGGGGSGGGGSDIVMTQSHKFMSTSVGDRVSIICKASQDVGTAVDWYQQKPGQSPKLLIYWASTRHTGVPDRFTGSGSGTDFTLTITNVQSEDLADYFCQQYNSYPLTFGAGTMLDLKRAAATERRAEVPTAHPSPSPRPAGQFQTLVVGVVGGLLGSLVLLVWVLAVICSRAARGTIGARRTGQPLKEDPSAVPVFSVDYGELDFQWREKTPEPPVPCVPEQTEYSEIVFPSGMGTSSPARRGSADGPRSAQPLRPEDGHCSWPL
B9: N-CAR PD1 (ITSM mut 2) (SEQ ID No 1999 with intracellular domain SEQ ID No 2015) (other)
chain: B8 chain with I348V
B10: N-CAR PD1 (ITSM mut3) (SEQ ID No 1999 with intracellular domain SEQ ID No 2016) (other)
chain: B8 chain with S346A, E347S
B11: N-CAR PECAM (SEQ ID No 1999 with intracellular domain SEQ ID No 2009) (other)
chain: EVQLQQSGPELVKPGTSVRISCKTSGYTFTEYTIHWVKQSHGKSLEWIGNINPNNGGTTYNQKFEDKATLTVDKSSSTAYMELRSLTSEDSAVYYCAAGWNFDYWGQGTTVTVSSGGGGSGGGGSGGGGSDIVMTQSHKFMSTSVGDRVSIICKASQDVGTAVDWYQQKPGQSPKLLIYWASTRHTGVPDRFTGSGSGTDFTLTITNVQSEDLADYFCQQYNSYPLTFGAGTMLDLKRAAATERRAEVPTAHPSPSPRPAGQFQTLVVGVVGGLLGSLVLLVWVLAVIKCYFLRKAKAKQMPVEMSRPAVPLLNSNNEKMSDPNMEANSHYGHNDDVRNHAMKPINDNKEPLNSDVQYTEVQVSSAESHKDLGKKDTETVYSEVRKAVPDAVESRYSRTEGSLDGT
B12: N-CAR LY9 (SEQ ID No 1999 with intracellular domain SEQ ID No 2008) (other)
chain: EVQLQQSGPELVKPGTSVRISCKTSGYTFTEYTIHWVKQSHGKSLEWIGNINPNNGGTTYNQKFEDKATLTVDKSSSTAYMELRSLTSEDSAVYYCAAGWNFDYWGQGTTVTVSSGGGGSGGGGSGGGGSDIVMTQSHKFMSTSVGDRVSIICKASQDVGTAVDWYQQKPGQSPKLLIYWASTRHTGVPDRFTGSGSGTDFTLTITNVQSEDLADYFCQQYNSYPLTFGAGTMLDLKRAAATERRAEVPTAHPSPSPRPAGQFQTLVVGVVGGLLGSLVLLVWVLAVIKRKGRCSVPAFCSSQAEAPADTPEPTAGHTLYSVLSQGYEKLDTPLRPARQQPTPTSDSSSDSNLTTEEDEDRPEVHKPISGRYEVFDQVTQEGAGHDPAPEGQADYDPVTPYVTEVESVVGENTMYAQVFNLQGKTPVSQKEESSATIYCSIRKPQVVPPPQQNDLEIPESPTYENFT
B13: N-CAR SIRPA (SEQ ID No 1999 with intracellular domain SEQ ID No 2011) (other)
chain: EVQLQQSGPELVKPGTSVRISCKTSGYTFTEYTIHWVKQSHGKSLEWIGNINPNNGGTTYNQKFEDKATLTVDKSSSTAYMELRSLTSEDSAVYYCAAGWNFDYWGQGTTVTVSSGGGGSGGGGSGGGGSDIVMTQSHKFMSTSVGDRVSIICKASQDVGTAVDWYQQKPGQSPKLLIYWASTRHTGVPDRFTGSGSGTDFTLTITNVQSEDLADYFCQQYNSYPLTFGAGTMLDLKRAAATERRAEVPTAHPSPSPRPAGQFQTLVVGVVGGLLGSLVLLVWVLAVIRIRQKKAQGSTSSTRLHEPEKNAREITQDTNDITYADLNLPKGKKPAPQAAEPNNHTEYASIQTSPQPASEDTLTYADLDMVHLNRTPKQPAPKPEPSFSEYASVQVPRK
B14: N-CAR PD1 (SEQ ID No 1999 with intracellular domain SEQ ID No 2000) (other)
chain: B8 chain with S346A, E347T

molecular target: T1, biotinylated recombinant human PSMA-human IgG1 Fc fusion protein (human, UniProt Q04609 44-750, biotinylated (sites not given)); assay: flow cytometry, reporter Jurkat cells co-expressing P-CAR1 (FIGS. 1-4)
T1 construct: Staining reagent; not shown: human IgG1 Fc
T1 sequence (Q04609 44-750 limits assumed): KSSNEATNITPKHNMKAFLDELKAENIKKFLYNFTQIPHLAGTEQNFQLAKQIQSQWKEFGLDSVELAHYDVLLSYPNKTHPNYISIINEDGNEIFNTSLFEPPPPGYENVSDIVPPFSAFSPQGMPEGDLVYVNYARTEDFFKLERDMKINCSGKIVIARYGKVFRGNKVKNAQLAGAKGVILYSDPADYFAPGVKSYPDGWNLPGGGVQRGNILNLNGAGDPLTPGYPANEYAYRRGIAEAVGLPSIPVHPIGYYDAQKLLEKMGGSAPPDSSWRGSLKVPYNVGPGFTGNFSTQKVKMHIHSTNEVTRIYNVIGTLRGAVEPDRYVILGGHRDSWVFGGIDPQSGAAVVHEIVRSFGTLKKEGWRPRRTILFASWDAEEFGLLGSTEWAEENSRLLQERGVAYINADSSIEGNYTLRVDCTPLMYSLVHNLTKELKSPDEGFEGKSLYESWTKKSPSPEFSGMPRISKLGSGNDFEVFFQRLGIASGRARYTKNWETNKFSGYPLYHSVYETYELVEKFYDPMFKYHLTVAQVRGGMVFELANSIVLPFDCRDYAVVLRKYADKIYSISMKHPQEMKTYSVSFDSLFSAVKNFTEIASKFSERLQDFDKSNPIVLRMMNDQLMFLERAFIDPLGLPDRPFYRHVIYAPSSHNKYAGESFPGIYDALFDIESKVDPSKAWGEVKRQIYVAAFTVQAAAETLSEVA

Binder | binding result
B1 | binds
B2 | binds
B3 | binds
B4 | binds
B5 | binds
B6 | binds
B7 | binds
B8 | binds
B9 | binds
B10 | binds
B11 | binds
B12 | binds
B13 | binds

molecular target: T1, biotinylated recombinant human …; assay: flow cytometry, reporter Jurkat cells co-expressing P-CAR2 (FIGS. 6-9)

Binder | binding result
B14 | binds
